The supplement of paper PMC12764529
± gives the half width of the 95% confidence interval.

Assay: folding stability dG unfold (combined trypsin and chymotrypsin); higher = more stable
How it was run: (§1)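 How resistant each design was to proteolysis was captured as K50, inferred by Bayesian fitting of sequencing counts. Unfolding free energy was then derived relative to a sequence-predicted unfolded-state K50 and a shared folded-state K50, per protease or combined. Digestion used trypsin and chymotrypsin at 11 threefold-diluted concentrations plus a no-protease condition, on mini-proteins under 80 residues without cysteine in a PA-tagged cDNA display construct. Designs were kept only when AlphaFold2 dimer inter-PAE was above 15.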

Compared with “SAGGSAGGMVYITVDIKKTDPLNGTEREEVITVKVNPDEVEKVIEELKSAPVNVEILKVTIIPPSAGGSAGG [r6_151_JUSTAS]”, “SKGKKYELIVLLFKVEDPEKYPVEKKVSVPKEFIDFLKKKGFKIIEIKTRVIPSSDGSVYVEHVALVEVDSA [r9_465_TrMRF]” is higher in “folding stability dG unfold” value: 1.56 ± 0.065 kcal/mol for the first, 3.82 ± 0.13 kcal/mol for the second.

“SAGGSKKEIEALKGKTVTFPKIRDPKTNELLEPVKVKIVEVKYDKDTKKIYIKVEVDGKIYTFEIDSAGGSA [r2_314_TrROS_Hall]” and “SAGMKIKIKLENGEEIEIDKENPVIKIKNKETGEEVELVFDPENEDEIYIFNKKTKKLIAKFKITEIEPSAG [r5_761_TrROS_Hall]” are within error of each other in “folding stability dG unfold” value: 2.5 ± 0.37 kcal/mol for the first, 2.62 ± 0.34 kcal/mol for the second.

Compared with “SAGGSAGGSASAEEEARRLAPEGKLVYKITKGNETTIVALTPEEAEALKKKNPDVEIEPILLSAGGSAGGSA [r18_198_JUSTAS]”, “SAGGATITLEPGTFTIEFPENELVIPVPVPEERPDVSPEEAAREIVEELREKYGLPPPEDLTVELAPSAGGS [r8_402_JUSTAS]” is lower in “folding stability dG unfold” value: 2.81 ± 0.087 kcal/mol for the first, 0.273 ± 0.22 kcal/mol for the second.

Going from “SAGGSAAPLVLPVRIYGPNENVTAEASEYDPGTGIVRLTVTHPDGTKTTLTFTGPAALLPPDADLNSAGGSA [r15_596_TrMRF]” to “SAGGSAGMNRVSLKPLPDGTYEVTITYPDGSTSTYTVPGPAVSLEEILKRLNIPESIEVEDVEPLGSAGGSA [r15_167_JUSTAS]”, the “folding stability dG unfold” value rises from 0.764 ± 0.056 kcal/mol to 3.52 ± 0.075 kcal/mol.

First: SAGGGMRAVEVTVTLTVPSSTSVEEAVERVKAEFEAAGLEAEPVSVTVTPVPGSVTVTVRLRVLRPPASAGG [r13_351_JUSTAS]
Second: SMKVTVSVTYNPETQTLELRFTVYERDPNGNWVPTASFPITLPVTIPAPPVPVVEVPEDATLPEDVALADSA [r9_888_TrMRF]
The “folding stability dG unfold” value of the first is lower: 3.19 ± 0.063 kcal/mol for the first, 4.99 ± 0.33 kcal/mol for the second.

“SAGGSITLPPVELPNGEKVTVTIEITPVPGAPPEERYRVTVTRTNPKTGTTETTELEVTRKGSVVTLESAGG [r13_208_JUSTAS]” and “SAGGKEEKVVEIEIKKEKLKKSKDGKVYSAEEIAKKLKKELPEENVEVEIVSYDKEKGVVKIKIKVKSAGGS [r16_284_TrROS_Hall]” are within error of each other in “folding stability dG unfold” value: 1.88 ± 0.099 kcal/mol for the first, 1.7 ± 0.36 kcal/mol for the second.

“SAGGKTYTIVLPIPPNVPLEEYIKKIEKLLKKLKKNVPISFNKQKKLPNGYYLINFTLTDNKVTGFGSAGGS [r8_7_TrMRF]” and “SAGGSAGGSSKAEELAKKLGVKVKIIDKFTLPGNKKVILAKVKFPGKGYALVLYDGKTPVLLPSAGGSAGGS [r12_279_TrMRF]” are within error of each other in “folding stability dG unfold” value: 1.72 ± 0.18 kcal/mol for the first, 1.96 ± 0.087 kcal/mol for the second.

First: SAGGSAGGSAGGPIPGSTIPSVPVKIVNIHPDGTKTEYFNSDIPIDALKEKFPGEIEFESSAGGSAGGSAGG [r17_125_TrMRF]
Second: SAGMTIVIEIPSSTSYEDAVKAIKKIAKEIKEKGKKFKIVVLTKDPKIAEAIKKALEELGIPLEVKIGSAGG [r19_268_TrMRF]
The “folding stability dG unfold” value of the first is lower: 0.703 ± 0.065 kcal/mol for the first, 2.93 ± 0.059 kcal/mol for the second.

First: SAGGEPGALSSSTYTITAPAKSVSKTVTVSYNPADGTATITFPESGKTITVPAVSDEEVLALIKEILLSAGG [r13_439_JUSTAS]
Second: SAMKIYTLPDGSRLIVIPDPYSDSLSVLLVTRSPDGTYHVTLIRYHPNGEKETFTRTGDLETAIRELLSSAG [r14_179_TrMRF]
The “folding stability dG unfold” value of the first is lower: 0.322 ± 0.065 kcal/mol for the first, 3.67 ± 0.091 kcal/mol for the second.

First: SAGGSAGGSAMQPIRIKITLYNPDNGDTRTYTVEVPDPNMSLDAIAKQLPPGYRIKKVSIMSAGGSAGGSAG [r3_80_TrROS]
Second: SAGGSAGGMTIKIEVNGKIIEIELPEGIKEITKIEIKKDGTITLYIKDNKKKITIKLDKLKKLKSAGGSAGG [r6_369_TrROS_Hall]
The “folding stability dG unfold” value of the first is higher: 3.68 ± 0.13 kcal/mol for the first, 2.34 ± 0.27 kcal/mol for the second.

With “SPPGLRIRIESPDNGEPIPFPIPPNVEVDVKRDKNGNFIATIKIQNPENGKKWTIEIDAPMRIVEIEPVPSA [r9_467_TrROS]” the “folding stability dG unfold” value was 2.76 ± 0.21 kcal/mol.

Assay: folding stability dG unfold from trypsin proteolysis; higher = more stable
How it was run: as §1

Compared with “SAGGTAEELAKNIADNLQKAGWIKKVEVEVHPSPDGNIMVRIEIKIEPPPPPPPPKVEYDENGKPRYDSAGG [r13_957_TrROS]”, “SAGGKKKKIIIVLSKEEAEKKAEELKKELEKKGIEVEEVKVVEGMSEEEVKELAEKEKKPVIVIEPKSAGGS [r16_94_TrROS_Hall]” is lower in “folding stability dG unfold” value: 1.04 ± 0.12 kcal/mol for the first, -0.158 ± 0.077 kcal/mol for the second.

Compared with “SAGGQRIEFEVQPNPENGMIFIKVKFQQMEPDPNGNKETREITHTVMVKLPPGAKPGEKIEIDIPPNMSAGG [r13_450_TrROS]”, “SAGMTSVEKRTLTFETEEEAEKEIKKIADELKKKGYKTEVKIEEVTKEKTEKGDSRYKVTATMKITKKESAG [r5_158_JUSTAS]” is lower in “folding stability dG unfold” value: 0.859 ± 0.046 kcal/mol for the first, 0.681 ± 0.074 kcal/mol for the second.

Compared with “SASSITVSYDESTGVTTVTVDGGGFTFTVPNPEGKTLTVTVTQEALPDGTTRVTVTITFPDGSTTTVVVSAG [r14_675_JUSTAS]”, “SAGGSAGGSAGGSPYVQIRFEIPVWKFKPGGWEPVNPMPIPIWVPADDPPAAKDIAEEISAGGSAGGSAGGS [r4_153_TrROS]” is lower in “folding stability dG unfold” value: 4.17 ± 0.2 kcal/mol for the first, 0.724 ± 0.07 kcal/mol for the second.

Going from “SAGGIKLPPWFKKLADILQEEGYKIRIEPVNGYWVIRVDGKVYPSPEDMEDNRDDPGVDRVIVIPFPSAGGS [r16_275_TrROS]” to “SAGGSAGGSASITFMLMKFDPEDNRVEVYTYKIKIERDPNGLKKFKIEPVKRQRINPDDLKAISAGGSAGGS [r12_374_TrROS]”, the “folding stability dG unfold” value falls from 2.78 ± 0.14 kcal/mol to 2.13 ± 0.12 kcal/mol.

Compared with “SAGGSAGGSMNTTTTPTAVPAGATLTVTVTSSSKSYSVPPAGPVTVTTTSGSSGTTVTVDVVASAGGSAGGS [r12_919_JUSTAS]”, “SAGGSAGGSAGGSVWIMIPLEEIKDLLPPGWTVEVEPQPMPNNGYIMVPVEIVPPDNAKSAGGSAGGSAGGS [r4_119_TrROS]” is lower in “folding stability dG unfold” value: 0.314 ± 0.022 kcal/mol for the first, 0.0715 ± 0.047 kcal/mol for the second.
